Conditions: Bacillus amyloliquefaciens, 20 °C, Urea, Fluorescence, whole UniProt chain shown
[1] = pH 2.76, diglycine 30 mM, NaCl 0.5 M
[2] = pH 2.82, diglycine 30 mM, NaCl 0.1 M

B1: Ribonuclease wild type, P00648 (protein)
chain: MMKMEGIALKKRLSWISVCLLVLVSAAGMLFSTAAKTETSSHKAHTEAQVINTFDGVADYLQTYHKLPDNYITKSEAQALGWVASKGNLADVAPGKSIGGDIFSNREGKLPGKSGRTWREADINYTSGFRNSDRILYSSDWLIYKTTDHYQTFTKIR
pH 2.5, diglycine 100 mM
  denaturant m value: 3.22 kcal/mol/M
  denaturant midpoint (higher = more stable): 0.52 M
  unfolding free energy: 1.66 kcal/mol
[1]
  denaturant m value: 2.62 kcal/mol/M
  denaturant midpoint (higher = more stable): 1.61 M
  unfolding free energy: 4.2 kcal/mol
[2]
  denaturant m value: 2.97 kcal/mol/M
  denaturant midpoint (higher = more stable): 1.21 M
  unfolding free energy: 3.58 kcal/mol
pH 2.87, diglycine 30 mM
  denaturant m value: 3.19 kcal/mol/M
  denaturant midpoint (higher = more stable): 1.14 M
  unfolding free energy: 3.63 kcal/mol
pH 2.98, diglycine 100 mM
  denaturant m value: 3.28 kcal/mol/M
  denaturant midpoint (higher = more stable): 1.39 M
  unfolding free energy: 4.55 kcal/mol

Reference: FireProtDB (doi:10.1021/bi00125a013)
